The text below walks through data of FireProtDB (doi:10.1006/jmbi.1996.0075).

Several values for one entry are separate records, joined by “and”; a condition that tells them apart may be missing. Identical values can stand only once.

For the data set the following is noted: Equus caballus, 20 °C, CD, reversible: yes; for unfolding free energy: Thermal.

Chain of Cytochrome c wild type, P00004 (P00004 whole entry): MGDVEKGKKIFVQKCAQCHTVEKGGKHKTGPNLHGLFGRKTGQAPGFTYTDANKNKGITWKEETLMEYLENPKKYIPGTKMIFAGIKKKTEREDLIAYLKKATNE

As for Cytochrome c wild type, P00004, the denaturant m value was 1.58 kcal/mol/M and 1.24 kcal/mol/M and 1.12 kcal/mol/M (pH 2, GdnHCl, glycine-HCl 5-10 mM, NaClO4 200 mM); 3.01 kcal/mol/M and 2.1 kcal/mol/M (pH 7, GdnHCl, Sodium phosphate 5-10 mM, NaCl); 1.2 kcal/mol/M and 0.86 kcal/mol/M (pH 7, Urea, Sodium phosphate 5-10 mM, NaCl). Besides, the unfolding free energy runs as follows: (pH 3.9, Sodium acetate 5-10 mM, NaCl) 0.57 kcal/mol; (pH 6, Sodium phosphate 5-10 mM, NaCl) 1.39 kcal/mol; (pH 7, Sodium phosphate 5-10 mM, NaCl) 1.7 kcal/mol.
